B1: LINE1-full (parent)
chain: UACGUAGGUGGUUUUCCCCUGAUAGUGCUAAGGGGGCCUGGAAGUUUGGACUGGGCAGAGCUCAACACAGCGUGGCAAAGUGGCUGUGGCUAGACUGCCUCUCUGGAUUCCUCGUCACUCAGCAGGGCAUCUCUGAGAGAAAUGCC

Variants of: B1
Assay: self-cleavage, relative activity (ratio to wild type); higher = more cleavage; in vitro, sequencing; the parent is a self-cleaving ribozyme

In order of falling self-cleavage:
1. UACGUAGGUGGUUUUCCCCUGAUAGUGCUAAGGGGGCCUGGAAGCUUGGACUGGGCAGAGCUCAACACAGCGUGGCAAAGUGGCUGUGGCUAGACUGCCUCUCUGGAUUCCUCGUCACCCAGCAGGGCAUCUCUGAGAGAAAUGCC [U45C U119C]  2.12
2. UACGUAGGUGGUUUUCCCCUGAUAGUGCUAAGGGGGCCUGGAAGGUCGGACUGGGCAGAGCUCAACACAGCGUGGCAAAGUGGCUGUGGCUAGACUGCCUCUCUGGAUUCCUCGUCACUCAGCAGGGCAUCUCUGAGAGAAAUGCC [U45G U47C]  1.92
3. UACGUAGGUGGUUUUCCCCUGAUAGUGCUAAGGGGGCCUGGAAGUUUGGACUGGGCAGAGCUCAACACAGCGUGGCAAAGUGGCUGUGGCUAGACUGCCUCUCUGGAUUCCUCGUCACUCAGCAUGGCAUCUCUGAGAGAAAUUCC [G125U G144U]  1.72
4. UACGUAGGUGGUUUUCCCCUGAUAGUGCUAAGGGGGCCUGGAAGUUUGGACUGGGCAGAGCUCAACACAGCGUGGCAAAGUGGCUGUGGCUAGACUGCCCCUCUGGAUUCCUUGUCACUCAGCAGGGCAUCUCUGAGAGAAAUGCC [U100C C113U]  1.7
5. UACGUAGGUGGUUUUCCCCUGAUAGUGCUAGGGGGGCCUGGAAGUUUGGACUGGGCAGAGCUCAACACAGCGUGGCAAAGUGGCUGUGGCUAGACUGCCUCUCUGGAUUCCACGUCACUCAGCAGGGCAUCUCUGAGAGAAAUGCC [A31G U112A]  1.61
6. UACGUAGGCGGUUCUCCCCUGAUAGUGCUAAGGGGGCCUGGAAGUUUGGACUGGGCAGAGCUCAACACAGCGUGGCAAAGUGGCUGUGGCUAGACUGCCUCUCUGGAUUCCUCGUCACUCAGCAGGGCAUCUCUGAGAGAAAUGCC [U9C U14C]  1.18
7. UACGUAGGUGGUUCUCCCCUGAUAGUGCUAAGUGGGCCUGGAAGUUUGGACUGGGCAGAGCUCAACACAGCGUGGCAAAGUGGCUGUGGCUAGACUGCCUCUCUGGAUUCCUCGUCACUCAGCAGGGCAUCUCUGAGAGAAAUGCC [U14C G33U]  1.14
8. UACGUAGAUGGUUUUCCCCUGAUAGUGCUAAGGGGGCCUGGAAGUUUGAACUGGGCAGAGCUCAACACAGCGUGGCAAAGUGGCUGUGGCUAGACUGCCUCUCUGGAUUCCUCGUCACUCAGCAGGGCAUCUCUGAGAGAAAUGCC [G8A G49A]  1.07
9. UACGUAGGUGGUUUUCCCCUGAUAGUGCUGAGGGGGCCUGGAAGUUUGGACUGGGCAGAGCUCAACACAGCGUGGCAAAGUGGCUGUGGCUAGACUGCCUCUCUGGAUUCCUCGUCACUCAGCAGGGCUUCUCUGAGAGAAAUGCC [A30G A129U]  0.89
10. UACGUAGGUGGUUUUCCCCUGAUAGUGCUAAGGGGGCCUGGAAGUUUGGACUGGGCAGAGCUCAACACAGCGUGACAAAGUGGCUGUGGCUAGACUGCCUCUCUGGAUUCCUCGUCACUCAGCAGGGCAUCUCUGAGAGGAAUGCC [G75A A140G]  0.88
11. UACGUAGGUGGUUUUCCCCUGAUAGUGCUAUGGGGGCCUGGAAGUUUGGACUGGGCAGAGCUCAACACAGCGUGGCAAAGUGGCUGUGGCUAGACUGCCUCUCUGGAUUCCUCGUCACUCAGCAGGGCAUCUCUGAGAGGAAUGCC [A31U A140G]  0.81
12. UACGUAGGUGGUUUUCCCCUGAUAGUGCUAAGGGGGCCCAGAAGUUUGGACUGGGCAGAGCUCAACACAGCGUGGCAAAGUGGCUGUGGCUAGACUGCCUCUCUGGAUUCCUCGUCACUCAGCAGGGCAUCUCUGAGAGAAAUGCC [U39C G40A]  0.73
13. UACGUAGGUGGUUUUCCCCUGAUAGUGCUAAGGGGGCCUGGAAGUUCGGACUGGACAGAGCUCAACACAGCGUGGCAAAGUGGCUGUGGCUAGACUGCCUCUCUGGAUUCCUCGUCACUCAGCAGGGCAUCUCUGAGAGAAAUGCC [U47C G55A]  0.65
14. UACGUAGGUGGUUUUCCCCUGAUAGUGCUAAGGGGGCCUGGUAGUUUGGACCGGGCAGAGCUCAACACAGCGUGGCAAAGUGGCUGUGGCUAGACUGCCUCUCUGGAUUCCUCGUCACUCAGCAGGGCAUCUCUGAGAGAAAUGCC [A42U U52C]  0.54
15. UACGUAGGUGGUUUUCCCCUGAUAGUGCUAAGGGGGCCUGGAAGUUUGGACUGGGCAGGGCUCAACACAGCGUGGCAAAGUGGCUGUGGCUAGGCUGCCUCUCUGGAUUCCUCGUCACUCAGCAGGGCAUCUCUGAGAGAAAUGCC [A59G A94G]  0.23
16. UACGUAGGUGGUUUUCCCCUGAUAGUGCUAAAGGGGCCUGGAAGUUUGGACUGGGCUGAGCUCAACACAGCGUGGCAAAGUGGCUGUGGCUAGACUGCCUCUCUGGAUUCCUCGUCACUCAGCAGGGCAUCUCUGAGAGAAAUGCC [G32A A57U]  0.16
17. UACGUAGGUGGUUUUCCCCUGAUAGUGCUAAGGGGGCCUGGAAGUUUGUACUGGGCAGAGCUCAACACAGCGUGGCAAAGUGGCUGUGGCUAGAGUGCCUCUCUGGAUUCCUCGUCACUCAGCAGGGCAUCUCUGAGAGAAAUGCC [G49U C95G]  0.04
18. UACGUAGGUGGUUUUCCCCUGAUAGUGCUAAGGGGGCCUGGAAGUUUGGUCUGGGCAGAGCUCAACACAGCGUGGCAAAGUGGCUGUGGCUAGACAGCCUCUCUGGAUUCCUCGUCACUCAGCAGGGCAUCUCUGAGAGAAAUGCC [A50U U96A]  0.03
19. UACGUAGGUGGUUUUCCCCUGAUAGUGCUAAGGGGGCCUGGAAGUUUGGACUGGGCAGAGUUCAACACAGCGUGGCAAGGUGGCUGUGGCUAGACUGCCUCUCUGGAUUCCUCGUCACUCAGCAGGGCAUCUCUGAGAGAAAUGCC [C61U A79G]  0.01
